Experimental data: FireProtDB (doi:10.1021/acs.biochem.7b00833)
Where “and” joins values, the source holds several entries; their conditions need not be identical. Identical values can stand only once.

B1: SCO1 protein homolog, P54178 (parent)
chain: MKVIKGLTAGLIFLFLCACGGQQIKDPLNYEVEPFTFQNQDGKNVSLESLKGEVWLADFIFTNCETICPPMTAHMTDLQKKLKAENIDVRIISFSVDPENDKPKQLKKFAANYPLSFDNWDFLTGYSQSEIEEFALKSFKAIVKKPEGEDQVIHQSSFYLVGPDGKVLKDYNGVENTPYDDIISDVKSASTLK

Variants of: B1
Conditions: Bacillus subtilis (strain 168), pH 7, CD, Sodium Phosphate Buffer, structure 1XZO, whole UniProt chain shown; for ddG of mutation (higher = less stable) / denaturant m value / denaturant midpoint (higher = more stable) / unfolding free energy: 25 °C, Urea

MKVIKGLTAGLIFLFLCACGGQQIKDPLNYEVEPFTFQNQDGKNVSLESLKGEVALADFIWTNCETICPPMTAHMTDLQKKLKAENIDVRIISFSVDPENDKPKQLKKFAANYPLSFDNWDFLTGYSQSEIEEFALKSFKAIVKKPEGEDQVIHQSSFYLVGPDGKVLKDYNGVENTPYDDIISDVKSASTLK
ddG of mutation (higher = less stable): 8.03 kcal/mol
denaturant m value: 3.74 kcal/mol/M
denaturant midpoint (higher = more stable): 0.8 M
unfolding free energy: 1.9 kcal/mol

MKVIKGLTAGLIFLFLCACGGQQIKDPLNYEVEPFTFQNQDGKNVSLESLKGEVALADFIWTNCETICPPMTAHMTDLQKKLKAENIDVRIISFSVDPENDKPKQLKKFAANYPLSFDNADFLTGYSQSEIEEFALKSFKAIVKKPEGEDQVIHQSSFYLVGPDGKVLKDYNGVENTPYDDIISDVKSASTLK
change of melting temperature, mutant - wild type (higher = more stable) (Thermal): -18 °C and -15.7 °C

MKVIKGLTAGLIFLFLCACGGQQIKDPLNYEVEPFTFQNQDGKNVSLESLKGEVFLADFIWTNCETICPPMTAHMTDLQKKLKAENIDVRIISFSVDPENDKPKQLKKFAANYPLSFDNWDFLTGYSQSEIEEFALKSFKAIVKKPEGEDQVIHQSSFYLVGPDGKVLKDYNGVENTPYDDIISDVKSASTLK
ddG of mutation (higher = less stable): 4.14 kcal/mol
denaturant m value: 3.37 kcal/mol/M
denaturant midpoint (higher = more stable): 1.72 M
unfolding free energy: 5.79 kcal/mol
change of melting temperature, mutant - wild type (higher = more stable) (Thermal): -6.2 °C and -9.1 °C

MKVIKGLTAGLIFLFLCACGGQQIKDPLNYEVEPFTFQNQDGKNVSLESLKGEVWLADFIFTNCETICPPMTAHMTDLQKKLKAENIDVRIISFSVDPENDKPKQLKKFAANYPLSFDNFDFLTGYSQSEIEEFALKSFKAIVKKPEGEDQVIHQSSFYLVGPDGKVLKDYNGVENTPYDDIISDVKSASTLK
ddG of mutation (higher = less stable): 2.89 kcal/mol
denaturant m value: 3.93 kcal/mol/M
denaturant midpoint (higher = more stable): 1.77 M
unfolding free energy: 7.04 kcal/mol
Tm (Thermal): 43.5 °C

MKVIKGLTAGLIFLFLCACGGQQIKDPLNYEVEPFTFQNQDGKNVSLESLKGEVWLADFIWTNCETICPPMTAHMTDLQKKLKAENIDVRIISFSVDPENDKPKQLKKFAANYPLSFDNWDFLTGYSQSEIEEFALKSFKAIVKKPEGEDQVIHQSSFYLVGPDGKVLKDYNGVENTPYDDIISDVKSASTLK
ddG of mutation (higher = less stable): -2.87 kcal/mol
denaturant m value: 4.24 kcal/mol/M
unfolding free energy: 12.8 kcal/mol
change of melting temperature, mutant - wild type (higher = more stable) (Thermal): 4.3 °C and -0.6 °C

MKVIKGLTAGLIFLFLCACGGQQIKDPLNYEVEPFTFQNQDGKNVSLESLKGEVALADFIFTNCETICPPMTAHMTDLQKKLKAENIDVRIISFSVDPENDKPKQLKKFAANYPLSFDNWDFLTGYSQSEIEEFALKSFKAIVKKPEGEDQVIHQSSFYLVGPDGKVLKDYNGVENTPYDDIISDVKSASTLK
ddG of mutation (higher = less stable): 8.93 kcal/mol
denaturant m value: 1.92 kcal/mol/M
denaturant midpoint (higher = more stable): 0.75 M
unfolding free energy: 1 kcal/mol

MKVIKGLTAGLIFLFLCACGGQQIKDPLNYEVEPFTFQNQDGKNVSLESLKGEVWLADFIWTNCETICPPMTAHMTDLQKKLKAENIDVRIISFSVDPENDKPKQLKKFAANYPLSFDNFDFLTGYSQSEIEEFALKSFKAIVKKPEGEDQVIHQSSFYLVGPDGKVLKDYNGVENTPYDDIISDVKSASTLK
ddG of mutation (higher = less stable): 4.18 kcal/mol
denaturant m value: 3.17 kcal/mol/M
denaturant midpoint (higher = more stable): 1.81 M
unfolding free energy: 5.75 kcal/mol
change of melting temperature, mutant - wild type (higher = more stable) (Thermal): -7.1 °C and -11.5 °C
